Reference: the DeepSol protein solubility set

test: soluble on expression in E. coli; label from the status in PepcDB or PDB records

Soluble on expression in E. coli, not soluble:
MGSDKIHHHHHHMTDQTRFFDEMTGGAPQARGPYQPYDAWFQGEDLDEIRKKSAEAEGFFRRTGITFNVYGQTEADERLIPFDVVPRIISGREWTRLTRGIEQRVRALNAFLYDIYHRQEILRAGRVPRELIDGNEAFLPQMMGVAPPGGIYTHIVGTDLVRTGEDEFFVLEDNARTPSGVSYMLENRETMLQMFPDLFSRIKVRPVQNYPANLRRSLAACAPNACTGECTVAVLTPGIHNSAYFEHAFLADQMGVELVEGHDLRVKDGRIAMRTTEGYKAIDVLYRRVDDDFLDPLNFNPDSMLGVPGIMDVYRAGGITIANAPGTGISDDKALYSYMPDIIEFYTGEKALLQNVPTHRCSEPEALKYVLDNLAELVVKEVHGSGGYGMLVGPAASKTEIEAFRKKLEANPSNYIAQPTLALSTCPILTEAGLAPRHVDLRPFVLMAPNKTTITPGGLTRVALAEGSLVVNSSQGGGTKDTWVLED
MGSDKIHHHHHHMTEQFNINQFNCSISGKGQTLIWAHGSTGCIQSEDAIGLYAWHRFPKKLQLIRYDAVGHGLSSAGKCVEDYLWPELANDMISVATHCKATSELILGGQSMGSATSLYAALKHPGMVKGLILMNPPNAWHSRAAQVDEYHKMAKAARIFGGKGLAKISAKHWDKLLPNWLINGHEHSVLGMLDGLKQMTSQTLDQLFRAAALNDLPNKQLLSGLTMPTLILAWHGDKTHPVETAIELHQTLPNSTLHIADSVDEVNEWPELISEFCFRL
MGSDKIHHHHHHMTEQNQKQLGNTLWSIADQLRGAMDADDFRDYMLSFLFLRYLSDNYETAAKKELGRDYPDVGGDARKVPLALWYANNVDDIPAFEKQMRRKVHYVIQPAHLWNSIANLARTQNPDLLDTLQAGFKYIETESFESTFQGLFSEIDLSSPKLGKSYSDRNAKLCTIIQKIAEGLAAFSTNIDALGDAYEYLIGQFAAGSGKKAGEFYTPQQISDILSAIVTLDSQEPKTGTKKRLDSVLDFACGSGSLLLNVRKKVNQAGGSIGKIYGQEKNITTYNLARMNMLLHGVKDTEFEIFHGDTLLNEWDMLREQNPARKPSFDAVVANPPFSYRWEPTDALADDVRFKSHGLAPKSAADFAFLLHGFHYLKDEGVMAIILPHGVLFRGGAEERIRTKLLKDGHIDTVIGLPANLFYSTGIPVCILVLKKCKKPDDVLFINAAEHFVKGKRQNHLSDEHIAKIIETYQFRTEEPRYARRVDMAEIEKNDFNLNISRYISTAVDEEEIDLTATHANLVNIEKAIQQATAKHNEFLKELGMPLLP
MGSDKIHHHHHHMTFKNDVDGCSYPGILSASRSTDIPAFYAEWFSRRLRDGYVVWKSPFNQKCYSVCFEKAGGIVFWTKNPKPLMPFLDEVSELGYDYYFQFTVNDYESEGFEPNVPPLDERIETFRSLSQKLGKERVIWRFDPICLTRELDVEGIMARLRSIGECLKGYTEQLVISFVDVHAYTKVQRNIKTADGFCLREPSMEEQDELARRISSYAKEIGVSPSACGERRSFAHFGILPNKCIDGELFKRICRKGNIKLQKHLGTYIDQYSLLSPQKKDVTLCKDKGQRKECGCVESKDIGMYNTCNHMCVYCYANTSQRVVEKNRVLHDVNGESLIPTSRTVEE
MGSDKIHHHHHHMTHLKIFLLLIVCALSVLDGKAQTGIALTDELNGKRIGVIGDSYVRNHKEPFENTWHYKFAKKHGMEYFNYGKNGNSIAYSSPRWGKAMYLRYAEMADSLDYVIVIGGHNDAFKLDSIGGIDNFKDKMEILCKGLVEKYPTAKIFFFTRWNCKNFKGSDSEKVVDAMIEVCGNYSIPIFDCARKGSIYADNDTFRRIYFQKSKNNTDTAHLNSKGHDRFLKVAESFLLQY
MGSDKIHHHHHHMTINFRRNALQLSVAALFSSAFMANAADVPQVKVTVTDKQCEPMTITVNAGKTQFIIQNHSQKALEWEILKGVMVVEERENIAPGFSQKMTANLQPGEYDMTCGLLTNPKGKLIVKGEATADAAQSDALLSLGGAITAYKAYVMAETTQLVTDTKAFTDAIKAGDIEKAKALYAPTRQHYERIEPIAELFSDLDGSIDAREDDYEQKAADPKFTGFHRLEKALFGDNTTKGMDQYAEQLYTDVVDLQKRISELAFPPSKVVGGAAGLIEEVAASKISGEEDRYSHTDLWDFQANVEGSQKIVDLLRPQLQKANPELLAKVDANFKKVDTILAKYRTKDGFETYDKLTDADRNALKGPITALAEDLAQLRGVLGLD
